Results from article PMC7547722, “A versatile soluble siglec scaffold for sensitive and quantitative detection of glycan ligands” (Nature Communications, 2020).
Where “and” joins values, the source holds several entries; their conditions need not be identical. Equal entries are not always repeated.

Tests used:
[1] = test system: BT549; assay: Flow cytometry, pre-complexed Siglec-Fc binding to breast cancer cell line; type: cell-based; settings: Strep-Tactin-AF647, replicates
Protocol: (§1) Strep-Tactin-AF647 (0.55 μg/mL, 0.57 pmol), streptavidin (Biolegend), or anti-human igG1 (Biolegend) was added to Siglec supernatant (50 μL) or purified Siglec and allowed to sit at 4 °C for 15 min. After, the pre-complexed solution was added to cells in a 96-well U-bottom plate for 30 min at 4 °C. After, 200 μL of flow buffer (HBSS, 0.1% BSA, 5 mM EDTA) was added and the plate was spun down at 300 rcf for 5 min. The cells were resuspended in 200 μL of flow buffer and processed through the flow cytometer.
(§2) Flow cytometry was performed on a BD LSRFortessa™ X-20 cell analyzer using BD FACSDiva Software Version 8.0.1 and data was processed using FlowJo LLC. Version 9.9.6 and Graphpad Prism 8. The live, single cell populations were gated out with two gates to obtain the median fluorescence intensity (MFI), which indicates binding of the Siglec-Fc-secondary complex to the cell surface. Control cells that were incubated with Strep-Tactin-AF647 (0.55 μg/mL, 0.57 pmol) was used to determine the baseline fluorescence. Number of cells (# cells) plotted indicates percentage of max (% max).

[2] = test system: MDA-MB-468; assay: as above; type: cell-based; settings: Strep-Tactin-AF647, replicates
Protocol: as §1, §2

[3] = test system: T47D; assay: as above; type: cell-based; settings: Strep-Tactin-AF647, replicates
Protocol: as §1, §2

[4] = test system: HS578T; assay: as above; type: cell-based; settings: Strep-Tactin-AF647, replicates
Protocol: as §1, §2

[5] = test system: ZR-75-1; assay: as above; type: cell-based; settings: Strep-Tactin-AF647, replicates
Protocol: as §1, §2

[6] = test system: MDA-MB-231; assay: as above; type: cell-based; settings: Strep-Tactin-AF647, replicates
Protocol: as §1, §2

[7] = test system: MCF7; assay: as above; type: cell-based; settings: Strep-Tactin-AF647, replicates
Protocol: as §1, §2

[8] = test system: neutrophils (CD15+), human splenocytes; assay: Siglec-Fc (CD22-Fc V1/V2, with or without Fc receptor block) binding to splenocytes, flow cytometry; type: cell-based; settings: Suppl Fig 12; three replicate columns
Protocol: (§3) For human splenocytes, the sample was homogenized in media through a 40 µm filter (Corning) under sterile conditions. Samples were centrifuged at 300 rcf for 5 min. The resulting pellet from the spleen sample and whole human blood were treated with RBC lysis buffer (7 min) and centrifuged at 300 rcf and the RBC lysis was repeated twice more until no RBC remained in the pellet. Samples were treated with human Fc-receptor blocking agent (TruStain FX, Biolegend) in flow buffer (HBSS, 0.1% BSA, 5 mM EDTA). For analysis, the following cocktail was used: hSig8 (PerCP/Cy5.5, clone 7C9, Biolegend cat. no. 347108, 1:200), hCD123 (PE/Cy7, clone 6H6, Biolegend cat. no. 306010, 1:200), hCD19 (PE, clone SJ25C1, Biolegend cat. no. 363004, 1:200), hCD3 (FITC, BD Pharmingen cat. no. 555332, 1:50), hCD14 (BV605, clone M5E2, BD Horizon cat. no. 564056, 1:200), hCD15 (BUV395, clone HI98, BD Horizon cat. no. 563872, 1:200), hCD56 (BV510, clone NCAM16.2, BD Horizon cat. no. 563041, 1:200). For human peripheral blood samples, we additionally used hHLA-DR (APC-Cy7, clone L243, Biolegend cat. no. 307618, 1:200). Pre-complexed Siglec-Fc/Strep-Tactin-AF647 (described above) was added to the antibody cocktail, added to cells, and allowed to stain at 4 °C for 45 min. The cells were then centrifuged at 300 rcf for 5 min and resuspended in flow buffer containing 1 µg/mL propidium iodide prior to analysis by flow cytometry.
as §2

[9] = test system: eosinophils (Siglec-8+); assay: Siglec ligands on peripheral blood immune cells, flow cytometry; type: cell-based, human; settings: replicate values
Protocol: (§4) Siglec supernatant (50 μL) or purified Siglec was incubated with cells in a 96-well U-bottom plate for 30 min at 4 °C. Following the incubation, 200 μL of flow buffer (HBSS, 0.1% BSA, 5 mM EDTA) was added and the plate was spun down at 300 rcf for 5 min. Strep-Tactin-AF647 (0.55 μg/mL, 50 μL, 0.57 pmol), streptavidin (Biolegend), or anti-human IgG1 (Biolegend) was added to the cells and incubated for 30 min at 4 °C. After, 200 μL of flow buffer (HBSS, 0.1% BSA, 5 mM EDTA) was added and the plate was spun down at 300 rcf for 5 min. The cells were resuspended in 200 μL of flow buffer and processed through the flow cytometer.
as §1, §3, §2

[10] = test system: monocytes (CD14+); assay: as above; type: cell-based, human; settings: replicate values
Protocol: as §4, §1, §3, §2

[11] = test system: basophils (CCR3+); assay: as above; type: cell-based, human; settings: replicate values
Protocol: as §4, §1, §3, §2

[12] = test system: U937 cells; assay: Flow cytometry, Siglec-Fc pre-complexed with Strep-Tactin, streptavidin or anti-human IgG1; type: cell-based; settings: U937; Strep-Tactin-AF647; replicates, Fig. 2
Protocol: as §1, §2

[13] = test system: NK cells (CD56+), human splenocytes; assay: Siglec-Fc binding to splenocytes, flow cytometry; type: cell-based; settings: Suppl Fig 12; three replicate columns
Protocol: as §3, §2

[14] = test system: T-cells (CD3+), human splenocytes; assay: Siglec-Fc binding to splenocytes, flow cytometry; type: cell-based; settings: Suppl Fig 12; three replicate columns
Protocol: as §3, §2

[15] = test system: B-cells (CD19+), human splenocytes; assay: Siglec-Fc binding to splenocytes, flow cytometry; type: cell-based; settings: Suppl Fig 12; three replicate columns
Protocol: as §3, §2

[16] = test system: monocytes (CD14+), human splenocytes; assay: Siglec-Fc binding to splenocytes, flow cytometry; type: cell-based; settings: Suppl Fig 12; three replicate columns
Protocol: as §3, §2

[17] = test system: cDCs (CD123dim/HLA-DR+); assay: Siglec ligands on peripheral blood immune cells, flow cytometry; type: cell-based, human; settings: cDC; replicate values
Protocol: as §3, §2

[18] = test system: T-cells (CD3+); assay: as above; type: cell-based, human; settings: replicate values
Protocol: as §3, §2

[19] = test system: B-cells (CD19+); assay: as above; type: cell-based, human; settings: replicate values
Protocol: as §3, §2

[20] = test system: neutrophils (CD15+); assay: as above; type: cell-based, human; settings: replicate values
Protocol: as §3, §2

[21] = test system: NK cells (CD56+); assay: as above; type: cell-based, human; settings: replicate values
Protocol: as §3, §2

[22] = test system: pDCs (CD123high/HLA-DR+); assay: as above; type: cell-based, human; settings: pDC; replicate values
Protocol: as §3, §2

[23] = test system: peripheral blood immune cells; assay: Comparison of 2-step and pre-complexed Siglec-Fc binding, flow cytometry (Figure 3e-g); type: cell-based, human; settings: Figure 3f; 2-Step; listed as Siglec-7-Fc R124A
[24] = test system: K562 cells; assay: Flow cytometry, pre-complexed Siglec-Fc binding; type: cell-based; settings: Strep-Tactin-AF647, replicates
Protocol: as §1, §2

[25] = test system: Jurkat cells; assay: Flow cytometry, pre-complexed Siglec-Fc binding; type: cell-based; settings: Strep-Tactin-AF647, replicates
Protocol: as §1, §2

[26] = test system: HuH7 cells; assay: Flow cytometry, pre-complexed Siglec-Fc binding; type: cell-based; settings: Strep-Tactin-AF647, replicates
Protocol: as §1, §2

[27] = test system: HEK293T cells; assay: Flow cytometry, pre-complexed Siglec-Fc binding; type: cell-based; settings: HEK; Strep-Tactin-AF647; replicates
Protocol: as §1, §2

[28] = test system: A549 cells; assay: Flow cytometry, pre-complexed Siglec-Fc binding; type: cell-based; settings: Strep-Tactin-AF647, replicates
Protocol: as §1, §2

[29] = test system: U937 cells treated with neuraminidase; assay: Pre-complexed Siglec-Fc staining of cells treated with Neu-S or Neu-A; type: cell-based
[30] = test system: human peripheral blood monocytes; assay: CD33-Fc binding to monocytes treated with Neu-S or Neu-A; type: cell-based; settings: Figure 6c; WT (no neuraminidase)
Protocol: as §1
For human splenocytes, the sample was homogenized in media through a 40 µm filter (Corning) under sterile conditions. Samples were centrifuged at 300 rcf for 5 min. The resulting pellet from the spleen sample and whole human blood were treated with RBC lysis buffer (7 min) and centrifuged at 300 rcf and the RBC lysis was repeated twice more until no RBC remained in the pellet. […]
as §2, with “Version 9.9.6 and Graphpad Prism 8.” left out, “Number of cells (# cells) plotted indicates percentage of max (% max).” left out

B1: Sig-7 R124A: Siglec-7-Fc essential arginine mutant (protein, UniProt Q9Y286 19-353, looked up, variant R124A)
extracellular domain: QKSNRKDYSLTMQSSVTVQEGMCVHVRCSFSYPVDSQTDSDPVHGYWFRAGNDISWKAPVATNNPAWAVQEETRDRFHLLGDPQTKNCTLSIRDARMSDAGRYFFAMEKGNIKWNYKYDQLSVNVTALTHRPNILIPGTLESGCFQNLTCSVPWACEQGTPPMISWMGTSVSPLHPSTTRSSVLTLIPQPQHHGTSLTCQVTLPGAGVTTNRTIQLNVSYPPQNLTVTVFQGEGTASTALGNSSSLSVLEGQSLRLVCAVDSNPPARLSWTWRSLTLYPSQPSNPLVLELQVHLGDEGEFTCRAQNSLGSQHVSLNLSLQQEYTGKMRPVSGVLL
modifications: extracellular domain fused to human IgG1 Fc
notes: Siglec-7-Fc essential arginine mutant
binding of pre-complexed Siglec-Fc (MFI) [1]: 114 and 117 and 118
binding of pre-complexed Siglec-Fc (MFI) [2]: 155 and 154 and 158
binding of pre-complexed Siglec-Fc (MFI) [3]: 116 and 117 and 119
binding of pre-complexed Siglec-Fc (MFI) [4]: 148 and 144 and 145
binding of pre-complexed Siglec-Fc (MFI) [5]: 229 and 258 and 236
binding of pre-complexed Siglec-Fc (MFI) [6]: 165 and 175 and 187
binding of pre-complexed Siglec-Fc (MFI) [7]: 121 and 126 and 130
Binding, Neutrophils [8]: 10.1 and 1.12 and 11.5
Siglec-Fc binding (Figure 3d) [9]: -1.28 and 37.2 and 6.04
Siglec-Fc binding (Figure 3d) [10]: 56.5 and 99 and 6.42
Siglec-Fc binding (Figure 3d) [11]: 41.1 and 57.8 and 2.57
binding of pre-complexed Siglec-Fc (MFI) [12]: 137 and 149 and 150
Binding, NK [13]: 1.26 and 1.99 and 1.13
Binding, T-cells [14]: 2.32 and 2.93 and 4.67
Binding, B-cells [15]: 8.11 and 1.36 and 3.18
Binding, Monocytes [16]: 7.43 and 2.68 and 5.18
Siglec-Fc binding (Figure 3d) [17]: 70.6 and -20.5 and 24.4
Siglec-Fc binding (Figure 3d) [18]: 7.7 and 27 and 12.8
Siglec-Fc binding (Figure 3d) [19]: 52.4 and 51.4 and 53.1
Siglec-Fc binding (Figure 3d) [20]: 46.2 and 51.8 and 78.1
Siglec-Fc binding (Figure 3d) [21]: 14.1 and 38.5 and 10.3
Siglec-Fc binding (Figure 3d) [22]: 57.8 and 10.3 and 41.1
Siglec-7-Fc Binding [23]: 9.54 and 11.2
binding of pre-complexed Siglec-Fc (MFI) [24]: 103 and 99.8 and 101
binding of pre-complexed Siglec-Fc (MFI) [25]: 90.2 and 95.5 and 99.5
binding of pre-complexed Siglec-Fc (MFI) [26]: 105
binding of pre-complexed Siglec-Fc (MFI) [27]: 85 and 88.7 and 91
binding of pre-complexed Siglec-Fc (MFI) [28]: 129 (2×) and 134

B2: CD33-Fc R119A (protein, UniProt P20138 18-259, looked up, variant R119A)
extracellular domain: DPNFWLQVQESVTVQEGLCVLVPCTFFHPIPYYDKNSPVHGYWFREGAIISRDSPVATNKLDQEVQEETQGRFRLLGDPSRNNCSLSIVDARRRDNGSYFFAMERGSTKYSYKSPQLSVHVTDLTHRPKILIPGTLEPGHSKNLTCSVSWACEQGTPPIFSWLSAAPTSLGPRTTHSSVLIITPRPQDHGTNLTCQVKFAGAGVTTERTIQLNVTYVPQNPTTGIFPGDGSGKQETRAGVVH
modifications: extracellular domain fused to human IgG1 Fc
CD33-Fc Binding ([29]; Figure 6a, +Neu-A): 106 and 114
CD33-Fc Binding ([29]; Figure 6a, +Neu-S): 92.4 and 95.2
CD33-Fc Binding ([29]; Figure 6a, WT cells (no neuraminidase)): 77.3 and 79
CD33-Fc Binding ([29]; Figure 6b, +Neu-A): 74 and 74.9
CD33-Fc Binding ([29]; Figure 6b, +Neu-S): 73 and 72.1 and 68.7
CD33-Fc Binding ([29]; Figure 6b, WT cells (no neuraminidase)): 77.3 and 79
CD33-Fc Binding [30]: 42.3 and 56.8 and 61
